The nanobody polyreactivity screen of Harvey et al. (2022)

Assay: yeast display, Sf9 membrane polyspecificity reagent, FACS + sequencing; frameworks hold sequencing errors
Outline: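 Galactose induction of a Saccharomyces cerevisiae BJ5465 synthetic nanobody display library ran 36–48 hours. The cells were then stained for 1 hour at 4 °C with 10% biotinylated, detergent-solubilized Sf9 membrane reagent, pulled down on streptavidin microbeads and FACS-sorted into low and high (top ~1%) gates on expression and reagent-binding fluorescence. Labels for polyreactivity follow the gate of origin.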
In the case of “QDQLVESGGGLVQAGGSLRLSCAASGSIFEINAMGWYRQSPGKERELVAAITGSGGSTHYADSVKGRFTISRDNAKNTVYLQMNSLKPEDTAVYYCAAVPRYQYGYWGQGTQVTVSS”, the “polyreactivity (PSR sort gate)” value is reported as “low polyreactivity”. In the case of “QDQLVESGGGLVQAGGSLRLSCAASGSIFGRNTMGWYRQAPGKERELVAAISSSGGSTRYADSVKGRFTISRDNAKNTVYLQMNSLKPEDTAVYYCNAKRYGGRQASYNLGDYWGQGTEVTVSS”, the “polyreactivity (PSR sort gate)” value is reported as “high polyreactivity”. For “QDQLVESGGGLVQAGGSLRLSCAASGSIFGVYAMGWYRQAPGKEGELVAAISWTDGTTYYADSVKGRFTISRDNAKNTVYLQMNSLKQEDTAVYYCAVTYPRVAKVMYYWGQGTQVNVSS”, the “polyreactivity (PSR sort gate)” value was “high polyreactivity”. In the case of “QDQLVESGGGLVQAGGSLRLSCAASGSIFGVYAMGWYRQAPGKERELVAVISFNSGSTNYADSVKGRFTISRDNAKNTVYLQMNSLKPEDTAVYYCNSDAWHETQVSGYSWGQGTQVTVSS”, the “polyreactivity (PSR sort gate)” value is reported as “low polyreactivity”. In the case of “QDQLVESGGGLVQAGGSLRLSCAASGSIFKYNMGWYRQAPGKERELVAAISRGGSTYYADSVKGRFTISRDNAKNTVYLQMTRLKPEDTAVYYCNAATSRRFSGMNYCGQGTQVTVSS”, the “polyreactivity (PSR sort gate)” value is reported as “high polyreactivity”. For “QDQLVESGGGLVQAGGSLRLSCAASGSIFPHNAKGSYRQAPGKERELVASITSRGGITYYADSVKGRFTISRDNAKNTVYLQMNSLKPEDTAVYYCAADTYTDGYDYWGQGTQVTVSS”, the “polyreactivity (PSR sort gate)” value was “low polyreactivity”. With “QDQLVESGGGLVQAGGSLRLSCAASGSIFRVYVMGWYRQAPGKERELVAAITSSDGSTYYADSVKGRFTISRDNAKNTVYLQMNSLKPEDTAVYYCNAEFYSPRVVVPRYWYPGDYWGQGTQVTVSS” the “polyreactivity (PSR sort gate)” value was “low polyreactivity”. For “QDQLVESGGGLVQAGGSLRLSCAASGSIFSYYAMGWYRQAAGKERELVAAINDGGGSTYYADSVKGRFTISRDNAKNTVYLQMNSLKPEDTAVYYCAAEWSWGPYRYDYWGQGTQVTVSS”, the “polyreactivity (PSR sort gate)” value was “high polyreactivity”. In the case of “QDQLVESGGGLVQAGGSLRLSCAASGSIFWVYVMGWYSQAPGKERELVAAITNGGSTDYADSVKGRFTISRDNAKNTVYLQLNSLKPEDTAVYYCAKRSPIWGRILITYDYWGQGTQVTVSS”, the “polyreactivity (PSR sort gate)” value is reported as “low polyreactivity”. In the case of “QDQLVESGGGLVQAGGSLRLSCAASGSIIDYYDMGWYRQAPGKEREFVAAINWSGGNTHYADSVKGRFTISRDNAKNTVYLQMNSLKPEDTAVYYCAVDVKIGTDFIGVVIPGDYWGQGTQVTVSS”, the “polyreactivity (PSR sort gate)” value is reported as “low polyreactivity”. With “QDQLVESGGGLVQAGGSLRLSCAASGSIIGWYAMGWYRQARGKERELVAAITFSSVSTYYADSVKGRFTISRDNAKNTVYLQMNSLKPEDTAVYYCAAVVYYTFDYCGQGTQVTVSS” the “polyreactivity (PSR sort gate)” value was “low polyreactivity”. In the case of “QDQLVESGGGLVQAGGSLRLSCAASGSILAYNAMGWYRQAPGKERQLVAAIRLSGGSTYYADSVKGRFTISRDNAKNTVYLQMNSLKPEDTAVYYCARRYYRYDTRKYNYWGQGTQVSVSS”, the “polyreactivity (PSR sort gate)” value is reported as “high polyreactivity”. For “QDQLVESGGGLVQAGGSLRLSCAASGSILRQYAMGWYRQAPGKERELVATITGDGSTNYADSVKGRFTISRDNAKNTVYLQMHSLKPEDTAVYYCAVIGYHYSAISPPSQTRQGYDYWGQGTQVTVSS”, the “polyreactivity (PSR sort gate)” value was “low polyreactivity”. With “QDQLVESGGGLVQAGGSLRLSCAASGSISVANAMGWYRQAPGKERELVAAISWRSDSTYYADSVKGRFTISRDNAKNTVYLQMNSLKPEDTAVYYCAASQYPLIWYDYWGQGTQVTVSS” the “polyreactivity (PSR sort gate)” value was “low polyreactivity”. With “QDQLVESGGGLVQAGGSLRLSCAASGSNFVPYAMGWYRQSPGKERELVAAISGSGTRTYYAYSVKGRFTISRDNSKNTVYLQMNSLKPEDTAVYYCDADWRRSVGYTMGYWGQGTQVTVSS” the “polyreactivity (PSR sort gate)” value was “high polyreactivity”. In the case of “QDQLVESGGGLVQAGGSLRLSCAASGSNYKYYPMGWYRTAPGKERELVAAITWGGGSTYYADSVKGRFTISRDNAKNTFYLQLNSLKPEDTAVYYCAASLFPYQYDAYFSHRKAFYYWGQGTQVTVSS”, the “polyreactivity (PSR sort gate)” value is reported as “high polyreactivity”. With “QDQLVESGGGLVQAGGSLRLSCAASGSRLGGYAMGWYRQAPGKERELVAAITWNGGRTYYADSVKWRFTISRDNAKNTVYLQMNILKPEDTAVYYCAADYSKGYEYWGQVTQVTVSS” the “polyreactivity (PSR sort gate)” value was “high polyreactivity”. For “QDQLVESGGGLVQAGGSLRLSCAASGSTFAFKTMGWYRQAPGKERELVAGISSNGGRTYYADSVKGRFTISRDNAKNTVYLQMNSLKPEDTAVYYCNALRRYVSVRPTKSDYWGQGTQVTVSS”, the “polyreactivity (PSR sort gate)” value was “high polyreactivity”. For “QDQLVESGGGLVQAGGSLRLSCAASGSTFEVYAMGWYRQAPGKERELVAGITRGGSTNYADSVKGRFTISRDNAKNTVYLQMNSLKPEDTAVYYCAAPKYLGTDEYDYWGQGTQVTVSS”, the “polyreactivity (PSR sort gate)” value was “low polyreactivity”. With “QDQLVESGGGLVQAGGSLRLSCAASGSTFGYYAMGWYRQAPGKERELVAAITSGASTNYADSVKGRFTISRDNAKNTVYLQMNSLKPEDTAVYYCAAGFQTRTPLNEFDYWGQGTQVTVSS” the “polyreactivity (PSR sort gate)” value was “low polyreactivity”. With “QDQLVESGGGLVQAGGSLRLSCAASGSTFKYYGMGWYRQAPGKERELVAAITSGGSTYDADSVKGRFTISRDNAKNTVYLQMNSLKPEDTAVYYCNTTAYSPTPYDYWGQGTQVTVSS” the “polyreactivity (PSR sort gate)” value was “low polyreactivity”. For “QDQLVESGGGLVQAGGSLRLSCAASGSTFPFYAMGWDRQAPGKERELVAAITSGGSTYADSVKGRFTISRDNAKNTVYLQMNSLKPEDTAVYYCAAVGWFADCLFSDIKGYSWGQGTPVTVSS”, the “polyreactivity (PSR sort gate)” value was “low polyreactivity”. With “QDQLVESGGGLVQAGGSLRLSCAASGSTFQYYTMGWYRQAPGKERELVAAISGDGGNTYYADSVKGRFTISRDNAKNTVYLQMNRLKPEDTAVYYCNADGLILYDYWGQGTQVTVSW” the “polyreactivity (PSR sort gate)” value was “low polyreactivity”. In the case of “QDQLVESGGGLVQAGGSLRLSCAASGSTFRHYAMGWYRQAPGQESELVAAISSRGGRTYYADSVKGRFTISRDNAKNTVYFQMNSLKPEDTAVYYCAADRFRLYVGGWWYDYWGLGTQVTVSS”, the “polyreactivity (PSR sort gate)” value is reported as “high polyreactivity”. In the case of “QDQLVESGGGLVQAGGSLRLSCAASGSTFSFYAMGWTRQAPGKERELVAAISRSGGSTFYADSVKGRFTISRDNAKNTVYLQMNSLKPEDSAVYYCAAYGGLQSRYYYWGQGTQVTVSS”, the “polyreactivity (PSR sort gate)” value is reported as “high polyreactivity”. For “QDQLVESGGGLVQAGGSLRLSCAASGSTFSRYAMGWYRQAPGKERELVAAITSSGGSTYYADSVKGRFTISRDNAKNTVYLQMNSLKPEDTAVYYCAASYQVRYDYWGQGTQVTVSS”, the “polyreactivity (PSR sort gate)” value was “high polyreactivity”. In the case of “QDQLVESGGGLVQAGGSLRLSCAASGSTFTFYVMGWYRQAPGKERELVAAITASGGSTYYADSVKGRFTISRDNAKNTVYLQMNSLKPEDTAVYYCAARPTYYYSRTYDYWGQGTQVTVSS”, the “polyreactivity (PSR sort gate)” value is reported as “low polyreactivity”. With “QDQLVESGGGLVQAGGSLRLSCAASGSTFVYYAMGWYRQAPGKERELVAAISRTGNTYYADSVKGRFTISRDNAKNTVYLQMNSLKPEDSAVYYCAKDYWRAYGSYEYWGQGTQVTVSS” the “polyreactivity (PSR sort gate)” value was “low polyreactivity”. With “QDQLVESGGGLVQAGGSLRLSCAASGSTFYFNAMGWYRPAPGKEREFVAVIDGSGGFTYYADSVKGRFTISRDNAKNTVYLQLNILKPEDTAVYYCNADLVYNTFFYSGGDEYDYWGQGTQVNVSS” the “polyreactivity (PSR sort gate)” value was “high polyreactivity”. For “QDQLVESGGGLVQAGGSLRLSCAASGSTIWGNAMGWYRQAPGKERELVAAITSTGSTNYADSVKARFTISRDNAKNTVYLQMNSLKPEVTAVYYCATAYYHTYWPTRRYYYWGQGTQVTVSS”, the “polyreactivity (PSR sort gate)” value was “high polyreactivity”. For “QDQLVESGGGLVQAGGSLRLSCAASGTFGGYAMGCYRQAPRKERELVARIRRNGGSTYYADSVKGRFTISRDNAKNTVYLQMNCLKPEDTAVYYCATYRYVYGTASYGYWGQGTQVTVSS”, the “polyreactivity (PSR sort gate)” value was “high polyreactivity”. With “QDQLVESGGGLVQAGGSLRLSCAASGYTFDYNAMGWYRQAPGKEREFVAAIDWSGGNTYYADSVKGRFTISRDNAKNTVYLQMNSLKPEDTAVYYCNTVTEAVTRRYDYWGQGTQVTVSS” the “polyreactivity (PSR sort gate)” value was “low polyreactivity”. For “QDQLVESGGGLVQAGGSLRLSCAASGYTFFFYVMGWSRQAAGKERELVAAITFSVGSTYYADSVKRRFTISRDNAKNTVYLQMNSLKPEDTAVYYCAARGALYSHSYGSARYYYWGQGTQVTVSS”, the “polyreactivity (PSR sort gate)” value was “high polyreactivity”. With “QDQLVESGGGLVQAGGSLRLSCAATGRIFKLYAMGWYRQAPGKERELVAAISSSGTRTYYADSVKGRFTISRDNAKNTVYLHMNSMKPEDTAVYYCAKRWPRKGNYPGSDYWGQGTQVTVSS” the “polyreactivity (PSR sort gate)” value was “high polyreactivity”. For “QDQLVESGGGLVQAGGSLRLSCAATGRIFVYYAMGWSRQAPGKERELVATISSGGSTYYADSVKGRFTISRDNAKNTVYLQMNSLKPDDTAVYYCAADNVNLYLAYYYKGDYWGQGTQVTVSS”, the “polyreactivity (PSR sort gate)” value was “low polyreactivity”. In the case of “QDQLVESGGGLVQAGGSLRLSCAATGRTFYFYTMGWYRQAPGKERELVATAITSGGSTNYADSVKGRFTISRDNAKNTVYLQMNSLKPEDTAVYYCAATLYWGWVFSYTSFDYWGQGTQVTVSS”, the “polyreactivity (PSR sort gate)” value is reported as “low polyreactivity”. In the case of “QDQLVESGGGLVQAGGSLRLSCAAYGRTLRRYAMGWYRQAPGKERELVAAISRSGSSTYADSVKGRFTISRDNAKNTVYLQMNSLKPEDTAVYYCNAYQPRYGYWGQGTQVTVSS”, the “polyreactivity (PSR sort gate)” value is reported as “high polyreactivity”. In the case of “QDQLVESGGGLVQAGGSLRLSCAAYGSTFPVYTMGWYRQAPRKEREFVAAITGSGGRTYYADSVKGRFTISRDNAKNTVFLQMNSLKPEDTAVYYCNAYPKGRYAAAFPGMDYWGQGTQVTVSS”, the “polyreactivity (PSR sort gate)” value is reported as “high polyreactivity”. With “QDQLVESGGGLVQAGGSLRLSCAAYGYTFDDNAMGWFRQAPGKERELVAAINWDGASTYADSVKGRFTISRDNAKNTVYLQMNSLKPEDTAVYYCTASGKDIFNYVYQGYDYCGQGTQVTVSS” the “polyreactivity (PSR sort gate)” value was “low polyreactivity”. For “QDQLVESGGGLVQAGGSLRLSCADYGINFYSYAMGWYRQAPGKEREFVAAISTGSSTNYADSVKGRFTISRDNAKNNVYLQMISLKPEDTAVYYCAKSTAVKPYAYRESGFIYDYWGQGTQLTVSS”, the “polyreactivity (PSR sort gate)” value was “low polyreactivity”.
